In paper PMC12148503, “Molecular Basis of Interchain Disulfide Bond Formation in BMP-9 and BMP-10” (Journal of molecular biology, 2025) one finds binding result and other: disulfide-linked dimer over monomer ratio data, which are given here for six molecules.

Data set [1] deals with the molecule itself. Put plainly: non-reducing SDS-PAGE with densitometry; IMAC-purified pro-proteins from expi293 conditioned medium, non-reduced against reduced; bands of disulfide-linked dimer and monomer.
For data set [2], the target named is T1, Pro-(X)-BMP-10 S385G, R353K, O95393.
T1 chain: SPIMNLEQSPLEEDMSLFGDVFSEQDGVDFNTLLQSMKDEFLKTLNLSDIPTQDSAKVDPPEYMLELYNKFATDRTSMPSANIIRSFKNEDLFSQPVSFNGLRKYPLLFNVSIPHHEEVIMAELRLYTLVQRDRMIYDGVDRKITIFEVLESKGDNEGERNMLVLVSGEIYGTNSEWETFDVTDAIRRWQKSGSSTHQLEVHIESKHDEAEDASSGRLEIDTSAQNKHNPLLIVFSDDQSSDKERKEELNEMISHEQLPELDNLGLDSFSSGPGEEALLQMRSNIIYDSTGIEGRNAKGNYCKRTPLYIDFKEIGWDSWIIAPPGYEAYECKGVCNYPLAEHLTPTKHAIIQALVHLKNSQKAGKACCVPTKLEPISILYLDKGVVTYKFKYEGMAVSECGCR
The data set can be described thus: SDS-PAGE densitometry. As to conditions: chain shown with the change; IMAC column purified Pro-BMP-10.

Data set [3] addresses T2, Pro-(X)-BMP-10 S385G, O95393.
T2 chain: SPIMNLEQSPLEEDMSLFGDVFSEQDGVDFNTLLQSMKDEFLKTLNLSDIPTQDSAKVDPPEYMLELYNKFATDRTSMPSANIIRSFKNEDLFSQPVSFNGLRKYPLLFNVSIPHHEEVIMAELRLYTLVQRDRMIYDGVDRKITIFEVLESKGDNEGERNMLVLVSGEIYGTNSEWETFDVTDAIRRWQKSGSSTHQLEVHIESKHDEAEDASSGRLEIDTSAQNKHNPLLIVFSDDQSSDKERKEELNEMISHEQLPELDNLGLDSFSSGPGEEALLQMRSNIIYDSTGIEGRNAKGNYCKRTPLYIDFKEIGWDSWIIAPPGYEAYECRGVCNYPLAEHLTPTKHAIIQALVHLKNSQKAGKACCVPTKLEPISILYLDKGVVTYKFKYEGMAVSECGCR
The data set can be described thus: SDS-PAGE densitometry. As to conditions: chain shown with the change; IMAC column purified Pro-BMP-10.

B1: Pro-(X)-BMP-9 K357R (natural protein, human, UniProt Q9UK05 23-429, looked up)
chain: KPLQSWGRGSAGGNAHSPLGVPGGGLPEHTFNLKMFLENVKVDFLRSLNLSGVPSQDKTRVEPPQYMIDLYNRYTSDKSTTPASNIVRSFSMEDAISITATEDFPFQKHILLFNISIPRHEQITRAELRLYVSCQNHVDPSHDLKGSVVIYDVLDGTDAWDSATETKTFLVSQDIQDEGWETLEVSSAVKRWVRSDSTKSKNKLEVTVESHRKGCDTLDISVPPGSRNLPFFVVFSNDHSSGTKETRLELREMISHEQESVLKKLSKDGSTEAGESSHEEDTDGHVAAGSTLAIEGRSSGAGSHCQKTSLRVNFEDIGWDSWIIAPKEYEAYECRGGCFFPLADDVTPTKHAIVQTLVHLKFPTKVGKACCVPTKLSPISVLYKDDMGVPTLKYHYEGMSVAECGCR
notes: Human proBMP9 residues 23-429; mutant based on Pro-(X)-BMP-9; also called K357R BMP-9; source: expi293 (suspension HEK293), secreted; purified from conditioned medium by IMAC; not shown: 8xHis, N-terminal, kept
Regarding B1, the binding result in data set [1] is reported as “binds”.

B2: Pro-(X)-BMP-9 (natural protein, human, UniProt Q9UK05 23-429, looked up)
chain: KPLQSWGRGSAGGNAHSPLGVPGGGLPEHTFNLKMFLENVKVDFLRSLNLSGVPSQDKTRVEPPQYMIDLYNRYTSDKSTTPASNIVRSFSMEDAISITATEDFPFQKHILLFNISIPRHEQITRAELRLYVSCQNHVDPSHDLKGSVVIYDVLDGTDAWDSATETKTFLVSQDIQDEGWETLEVSSAVKRWVRSDSTKSKNKLEVTVESHRKGCDTLDISVPPGSRNLPFFVVFSNDHSSGTKETRLELREMISHEQESVLKKLSKDGSTEAGESSHEEDTDGHVAAGSTLAIEGRSSGAGSHCQKTSLRVNFEDIGWDSWIIAPKEYEAYECKGGCFFPLADDVTPTKHAIVQTLVHLKFPTKVGKACCVPTKLSPISVLYKDDMGVPTLKYHYEGMSVAECGCR
notes: Human proBMP9 residues 23-429; Behind the rat serum albumin signal peptide, the 8xHis tag and a factor Xa site (IEGR); Secreted unprocessed as a mixture of disulfide-linked dimers and monomers; also called Pro-BMP-9 with the furin site replaced by a factor X site; Pro-BMP-9 wild-type; source: expi293 (suspension HEK293), secreted; purified from conditioned medium by IMAC; not shown: 8xHis, …
Take B2: in data set [1], the binding result is recorded as “binds”.

B3: Pro-(X)-BMP-9 G389S (natural protein, human, UniProt Q9UK05 23-429, looked up)
chain: KPLQSWGRGSAGGNAHSPLGVPGGGLPEHTFNLKMFLENVKVDFLRSLNLSGVPSQDKTRVEPPQYMIDLYNRYTSDKSTTPASNIVRSFSMEDAISITATEDFPFQKHILLFNISIPRHEQITRAELRLYVSCQNHVDPSHDLKGSVVIYDVLDGTDAWDSATETKTFLVSQDIQDEGWETLEVSSAVKRWVRSDSTKSKNKLEVTVESHRKGCDTLDISVPPGSRNLPFFVVFSNDHSSGTKETRLELREMISHEQESVLKKLSKDGSTEAGESSHEEDTDGHVAAGSTLAIEGRSSGAGSHCQKTSLRVNFEDIGWDSWIIAPKEYEAYECKGGCFFPLADDVTPTKHAIVQTLVHLKFPTKVSKACCVPTKLSPISVLYKDDMGVPTLKYHYEGMSVAECGCR
notes: Human proBMP9 residues 23-429; mutant based on Pro-(X)-BMP-9; also called G389S BMP-9; source: expi293 (suspension HEK293), secreted; purified from conditioned medium by IMAC; not shown: 8xHis, N-terminal, kept
Consider B3, for which the binding result in data set [1] is on record as “binds”.

B4: Pro-(X)-BMP-10, O95393 S385G; R353K (protein)
chain: SPIMNLEQSPLEEDMSLFGDVFSEQDGVDFNTLLQSMKDEFLKTLNLSDIPTQDSAKVDPPEYMLELYNKFATDRTSMPSANIIRSFKNEDLFSQPVSFNGLRKYPLLFNVSIPHHEEVIMAELRLYTLVQRDRMIYDGVDRKITIFEVLESKGDNEGERNMLVLVSGEIYGTNSEWETFDVTDAIRRWQKSGSSTHQLEVHIESKHDEAEDASSGRLEIDTSAQNKHNPLLIVFSDDQSSDKERKEELNEMISHEQLPELDNLGLDSFSSGPGEEALLQMRSNIIYDSTGIEGRNAKGNYCKRTPLYIDFKEIGWDSWIIAPPGYEAYECKGVCNYPLAEHLTPTKHAIIQALVHLKNSQKAGKACCVPTKLEPISILYLDKGVVTYKFKYEGMAVSECGCR
As to B4, the other: disulfide-linked dimer over monomer ratio in data set [2] came to 0.41.

B5: Pro-(X)-BMP-10, O95393 S385G (protein)
chain: SPIMNLEQSPLEEDMSLFGDVFSEQDGVDFNTLLQSMKDEFLKTLNLSDIPTQDSAKVDPPEYMLELYNKFATDRTSMPSANIIRSFKNEDLFSQPVSFNGLRKYPLLFNVSIPHHEEVIMAELRLYTLVQRDRMIYDGVDRKITIFEVLESKGDNEGERNMLVLVSGEIYGTNSEWETFDVTDAIRRWQKSGSSTHQLEVHIESKHDEAEDASSGRLEIDTSAQNKHNPLLIVFSDDQSSDKERKEELNEMISHEQLPELDNLGLDSFSSGPGEEALLQMRSNIIYDSTGIEGRNAKGNYCKRTPLYIDFKEIGWDSWIIAPPGYEAYECRGVCNYPLAEHLTPTKHAIIQALVHLKNSQKAGKACCVPTKLEPISILYLDKGVVTYKFKYEGMAVSECGCR
For the molecule B5, in data set [3], the other: disulfide-linked dimer over monomer ratio is 0.42.

B6: Pro-(fr)-BMP-10 (natural protein, human, UniProt O95393 22-424, looked up)
chain: SPIMNLEQSPLEEDMSLFGDVFSEQDGVDFNTLLQSMKDEFLKTLNLSDIPTQDSAKVDPPEYMLELYNKFATDRTSMPSANIIRSFKNEDLFSQPVSFNGLRKYPLLFNVSIPHHEEVIMAELRLYTLVQRDRMIYDGVDRKITIFEVLESKGDNEGERNMLVLVSGEIYGTNSEWETFDVTDAIRRWQKSGSSTHQLEVHIESKHDEAEDASSGRLEIDTSAQNKHNPLLIVFSDDQSSDKERKEELNEMISHEQLPELDNLGLDSFSSGPGEEALLQMRSNIIYDSTARIRRNAKGNYCKRTPLYIDFKEIGWDSWIIAPPGYEAYECRGVCNYPLAEHLTPTKHAIIQALVHLKNSQKASKACCVPTKLEPISILYLDKGVVTYKFKYEGMAVSECGCR
notes: Human proBMP10 residues 22-424 with the natural furin site; Partially processed by furin: the sample holds unprocessed pro-protein, prodomain and growth factor (12 and 24 kDa); also called Pro-BMP-10 with unmodified furin processing site; wild-type BMP-10; source: expi293 (suspension HEK293), secreted; purified from conditioned medium by IMAC; not shown: 8xHis, N-terminal, kept
For B6, the binding result in data set [1] was “binds”.
